B1: Ki-4 single-chain variable fragment (scFv), soluble (scFv, V domains shown)
VH: QVKLQESGTELAKPGAAVKMSCKASGYTFTDYWMHWVKQRPGQGLEWIGYINPNTAYTDYNQKFKDKATLTADKSSSTAYMQLRSLTSEDSAVYYCAKKTTQTTWGFPFWGQGTTVTVSS
VL: DIVLTQSPKSMAMSVGERVTLSCKASENVDSFVSWYQQKPGQSPKLLIYGASNRYTGVPDRFAGSGSGRDFTLTISSVQAEDLADYHCGQNYRYPLTFGAGTKLEIK
notes: also called Ki-4 scFv; His-tagged Ki-4 scFv
B2: anti-CD30 monoclonal antibody Ki-4 (antibody, V domains shown)
VH: B1 VH
VL: B1 VL
notes: also called Ki-4 mAb; Ki-4 whole antibody; copies: 2 + 2

Biological target: T1, extracellular domain of the human CD30 receptor fused to the hinge, CH2 and CH3 domain of human IgG1 … (Homo sapiens (Human)., UniProt P28908)
T1 construct: also called recombinant, human sCD30-Fc protein
T1 sequence (P28908 19-385): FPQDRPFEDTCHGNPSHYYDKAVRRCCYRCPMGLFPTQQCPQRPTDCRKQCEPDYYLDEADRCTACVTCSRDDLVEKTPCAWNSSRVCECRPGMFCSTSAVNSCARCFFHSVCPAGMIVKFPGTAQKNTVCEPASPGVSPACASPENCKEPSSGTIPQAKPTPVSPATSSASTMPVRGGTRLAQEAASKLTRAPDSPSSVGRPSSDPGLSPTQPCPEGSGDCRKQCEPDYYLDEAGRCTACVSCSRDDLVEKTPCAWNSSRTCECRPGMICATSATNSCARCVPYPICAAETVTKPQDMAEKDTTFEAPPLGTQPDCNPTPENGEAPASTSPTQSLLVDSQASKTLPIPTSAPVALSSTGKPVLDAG
Test: SPR; BIAcore 2000; sCD30-Fc covalently coupled to a CM-5 sensorchip (450 RU, 'low density'); surface saturated by multiple injections of antibody or fragment, flow 20 ul/min; dissociation rates by curve fitting (monovalent for the scFv, bivalent for the mAb)
Details: both partners purified

Row | Binder | koff | t1/2 of the antibody-antigen complex (=ln2/koff)
1 | B1 | 0.00018 s⁻¹ | 1.07 h
2 | B2 | 0.00012 s⁻¹ | 1.6 h
